A word on the EC50: it is the concentration giving half of the maximal effect. One may read the Kd as the concentration at which binding is half-saturated.

Test [1] addresses T1, FMC63 antibody (murine anti-CD19 monoclonal antibody, Merck & Millipore MAB1794).
T1 construct: Whole mouse monoclonal antibody coated on the ELISA plate; also called CD19 antibody
Briefly: ELISA, FMC63 antibody coated. Here is the method: (§1) Blocking was then performed with PBST (PBS containing 0.05% Tween 20) containing 5% BSA at 300 μL per well. […] The plate was washed with PBST and then incubated at room temperature for 30 minutes with goat anti-rabbit IgG polyclonal antibody coupled with horseradish peroxidase (HRP).

The target in test [2] is T2, FMC63 scFv-His tag recombinant protein.
T2 construct: Expressed in 293T cells, purified on Ni-NTA; also called FMC63 scFv recombinant protein; CD19 CAR scFv recombinant protein
T2 sequence (scFv, as listed by the source): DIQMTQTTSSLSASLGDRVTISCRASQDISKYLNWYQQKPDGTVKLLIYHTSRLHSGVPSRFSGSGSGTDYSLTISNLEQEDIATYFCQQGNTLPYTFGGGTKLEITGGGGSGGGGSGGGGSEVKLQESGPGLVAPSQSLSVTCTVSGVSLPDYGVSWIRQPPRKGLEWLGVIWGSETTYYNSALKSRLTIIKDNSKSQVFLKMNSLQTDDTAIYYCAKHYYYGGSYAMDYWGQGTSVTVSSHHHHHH
Briefly: ELISA, FMC63 scFv coated. Here is the method:
as §1

The target is the same in test [3]. Briefly: BLI (Fortebio Octet), FMC63 scFv loaded on the sensor, R19mab at 15.6, 7.8, 3.9, 1.95 and 0.975 nM, 1:1 model; the same value stands in rows 1 to 5 of the drawn table (column Kd (M)); the text rounds it to 43 pM. An excerpt: (§2) In short, the biosensor was balanced offline in PBS buffer for 600 seconds, and then detected online for 60 seconds to establish a baseline. […] Data Analysis 6.2 evaluation software was used to analyze the data, and a 1:1 combination model was used for kinetic analysis.

Test [4] deals with T3, CD19 CAR containing FMC63 scFv, on the cell surface (CD19 CAR-T cells, CD19 CAR-293T cells).
T3 construct: Chimeric antigen receptor brought into T cells or 293T cells by lentivirus; also called FMC63 scFv CD19 CAR; CD19 CAR scFv on the cell surface; not shown: hinge, transmembrane and intracellular signalling regions of the CAR
T3 sequence (chain, as listed by the source): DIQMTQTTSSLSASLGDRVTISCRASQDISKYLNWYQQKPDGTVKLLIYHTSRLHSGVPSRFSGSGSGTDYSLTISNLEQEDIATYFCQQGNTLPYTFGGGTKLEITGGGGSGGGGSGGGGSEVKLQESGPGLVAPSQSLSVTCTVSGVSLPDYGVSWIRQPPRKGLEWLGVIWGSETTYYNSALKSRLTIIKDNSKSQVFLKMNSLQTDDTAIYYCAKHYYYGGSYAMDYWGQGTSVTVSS
The test can be described thus: flow cytometry on CD19 CAR-293T cells. On the procedure: (§3) T cells were infected with CD19 CAR lentivirus or BCMA CAR lentivirus to obtain corresponding CAR-T cells. […] 2×10⁵ cells were suspended in 50 μL FACS buffer. 50 μL antibody solution was then added to 50 μL cell suspension and the mixture was incubated on ice for 30 minutes. The cells were then washed twice with cold FACS buffer. […] Table 1) and the mixture was incubated on ice for 30 minutes, after that the cells were washed twice with cold FACS buffer. The cells were resuspended in 200 μL FACS buffer and detected by flow cytometry.
(§4) CD19 CAR-293T cells were obtained by infecting 293T cells with CD19 CAR lentivirus. […] 2×10⁵ CD19 CAR-293T cells were suspended in 50 μL FACS buffer.
On the technique in general: A flow cytometer gives signals particle by particle.

Test [5] has as its target T3, CD19 CAR containing FMC63 scFv, on the …. Briefly: flow cytometry (MFI) on CD19 CAR-293T cells, R19mab titrated; printed beside EC50 = 1.58 nM, which the text gives. On the procedure: as §3, §4
The target of test [6] is T2, FMC63 scFv-His tag recombinant protein. The test can be described thus: BLI (Fortebio Octet), FMC63 scFv on the sensor, R19mab 15.6-0.975 nM, 1:1 model.
Description: as §2
(In general: BLI is a label-free optical method that tracks binding on a fibre tip over time.)

B1: rabbit monoclonal antibody R19mab against FMC63 scFv (antibody, V domains shown)
VH: QSLEESGGRLVTPGTPLTLTCTVSGIDFRNYGVSWVRQAPGKGLEWIGIFSSSGSTYYATWAKGRFTISKASSTTVDLKMTSLTTEDTATYFCARHPGPTNGWKLWGPGTLVTVSS
VL: DVVMTQTPASVEAPVGGTVTIKCQASQSVSGYCSWYQQKPGQPPKLLIYRASTLESGVPSRFSGSGSGTDFTLTISDLECADAATYYCQSNYNSGSSSSAAAFGGGTEVVVK
notes: Rabbit monoclonal IgG, expressed in 293T cells and purified on Protein A; also called No.0231 (rabbit B cell clone)
On to B1, for which the EC50 in test [1] amounted to 0.253 nM; in test [2], 0.307 nM; in test [4], 1.58 nM; in test [5], 0.237 µg/mL. In addition, the results for the Kd in test [3] and in test [6] were 0.0431 nM and 0.043 nM, respectively.

Values taken from patent US20220074937A1 (BIOSWAN LABORATORIES, published 2022).
